Measured values reported in article PMC11514477.

Key:
[1] = target: macroH2A1 (endogenous; collective term for macroH2A1.1 and macroH2A1.2) (mouse (endogenous in C2C12 and MEF)); assay: proximity ligation; duolink PLA in situ in control C2C12 cells; high-content screening microscopy (Operetta), nuclear spots of the full cell population counted with Harmony
[2] = target: macroH2A1 (endogenous; collective term for macroH2A1.1 and macroH2A1.2) (mouse (endogenous in C2C12 and MEF)); assay: proximity ligation; duolink PLA in situ in C2C12 stable knockdown lines (Scramble control, macroH2A2 knockdown); cells extracted before fixation to remove soluble Mcm2; EdU-positive cells; confocal imaging, spots per nucleus counted in FIJI

Chain of macroH2A1 (endogenous; collective term for macroH2A1.1 and macroH2A1.2) (mouse (endogenous in C2C12 and MEF)) (Q9QZQ8 whole entry): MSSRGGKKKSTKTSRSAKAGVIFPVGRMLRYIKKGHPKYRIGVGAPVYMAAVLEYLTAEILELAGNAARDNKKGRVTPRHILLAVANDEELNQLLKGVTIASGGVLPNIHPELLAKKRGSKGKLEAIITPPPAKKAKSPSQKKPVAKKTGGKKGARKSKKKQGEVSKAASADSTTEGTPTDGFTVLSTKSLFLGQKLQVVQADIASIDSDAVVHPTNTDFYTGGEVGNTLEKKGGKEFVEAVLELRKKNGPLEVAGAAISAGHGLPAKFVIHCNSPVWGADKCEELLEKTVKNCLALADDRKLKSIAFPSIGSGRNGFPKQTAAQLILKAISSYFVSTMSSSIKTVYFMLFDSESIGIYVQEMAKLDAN

With “Mcm2 (subunit of the Mcm DNA helicase complex) (from UniProt P97310 1-904) (natural protein)” the PLA spots per nucleus (spots per nucleus) [1] was 15.1, the PLA spots per nucleus (control Scramble cells) (spots per nucleus) [2] was 19.8 and the PLA spots per nucleus (macroH2A2 depleted cells) (spots per nucleus) [2] was 18.2.
